What was measured:
Type in all cases: cell-based
HEK293A cells [1] = experiment: FP stability in HEK293A cells (cycloheximide); details: for fold increase in smURFP fluorescence: HEK293A
Experimental: HEK293A cells were transfected with pCDNA3-smURFP-IRES-eGFP and incubated for 48 h. 50 μg/ml cycloheximide+25 μM BV, 5 μM BVMe2, or no chromophore was added and cells were imaged after 1, 10, 30, 60, 120, and 225 min. Fluorescence was fit to a single exponential decay (F=A [exp^−kt]), where F is fluorescence that varies as a function of time, A is the fit initial fluorescence, k is the rate of fluorescence decay (protein degradation), and t is time in min.

HEK293A cells [2] = experiment: Fluorescence imaging of FPs in HEK293A cells with chromophore addition or HO-1 expression
Source text: smURFP codons were optimized for human cell expression, and the gene was created by GenScript. smURFP, TDsmURFP (created from mammalian-optimized smURFP), IFP1.4 (mammalian-optimized form^35), IFP2.0 (mammalian-optimized form^46), and iRFP713 (mammalian-optimized form^36) were PCR amplified using Phusion High-Fidelity DNA Polymerase (NEB) with primers containing 5′ HindIII and 3′ XhoI restriction enzyme sites. HindIII-HF and XhoI (NEB)-digested PCR fragments were gel purified (Zymoclean Gel DNA Recovery Kit) and were ligated (T4 DNA Ligase, Life Technologies) into a similarly digested pCDNA3-IRES-eGFP vector (bicistronic to express two FPs in the same cell). For creation of HO-1-expressing mammalian vec-tors, the Synechocystis HO-1 was used, and the codons were not optimized for mammalian expression. Synechocystis HO-1 was directly amplified from the pBAD vector using primers containing 5′ BsiWI and 3′ XbaI restriction enzyme sites. pCDNA3 smURFP, TDsmURFP, IFP1.4, IFP2.0, or iRFP713-IRES-eGFP vectors were digested with BsiWI and XbaI (NEB), dephosphorylated (SAP, Roche), gel purified (Zymoclean Gel DNA Recovery Kit), and ligated (T4 DNA Ligase, Life Technologies) with similarly digested, purified HO-1 PCR fragment. For creation of smURFP fusions, smURFP was PCR amplified using Phusion High-Fidelity DNA Polymerase (NEB) with primers containing 5′ AgeI and 3′ NotI restriction enzyme sites for N-terminal fusions or with primers containing 5′ AgeI and 3′ BspEI restriction enzyme sites for C-terminal fusions. mGeos2-VEL-ManII-N-10 (Addgene 57551) and Dronpa-PDHA1-N-10 (Addgene 57292) vectors were digested with AgeI and NotI (NEB) and mCherry-αTubulin-C-18 (Addgene 55148) and tdTomato-LaminB1-10 (Addgene 58107) were digested with AgeI and BspEI, dephosphorylated (SAP, Roche), gel purified (Zymoclean Gel DNA Recovery Kit), and ligated (T4 DNA Ligase, Life Technologies) with similarly digested, purified smURFP PCR fragment. HEK293A (Invitrogen, Life Technologies), HT1080 (ATCC), and PC3 (ATCC) cells were grown in Dulbecco's Modified Eagle's medium (DMEM, Corning), supplemented with 10% FBS (Atlanta Biologicals)+1×penicillin—streptomycin (Fisher Scientific), which is referred to as growth media, on poly-D-lysine-coated glass-bottom culture dishes (MatTek, No. P35G-0-14-C). The HEK cell line is listed in the ICLAC and NCBI biosample databases and is commonly misidentified as the HeLa cell line. For expression of exogenous fluorescent proteins, there is no problem if there is a contaminating cell line because no endogenous biology or therapeutic results are being determined. HEK293A cells were purchased from Invitrogen (Life Technologies), and all experiments are derived from the same expanded frozen stock without cell line authentication or mycoplasma detection. Cells were transfected using 2 μg of circular DNA+5 μl Lipofectamine 2000 (Life Technologies) in 2 ml Opti-MEM (Life Technologies) for 4-5 h, transfection media was discarded, and prewarmed growth media was added. Chromophores (5 mM in DMSO) were added at indicated concentrations to growth media, warmed for 10-15 min at 37° C., and added to cells. For multiple timepoints, incubations were staggered to maintain equivalent incubation. Prior to imaging, cells were washed 1×2 ml growth media, 2×2 ml imaging solution, and imaged in 2 ml imaging solution. Fluorescence imaging was performed on a Zeiss Axiovert 200M inverted microscope controlled by SlideBook software. FPs were imaged with the following settings: eGFP, EX/EM=495(10)/535(25) nm, tdTomato EX/EM=540(25)/595(50) nm; mCherry and mCardinal, EX/EM=580(20)/653(95) nm; smURFP and TDsmURFP, EX/EX=628(40)/680(30) nm; and IFP1.4, IFP2.0, and iRFP713, EX/EM=665(45)/725(50) nm. […]

PC3 cells = experiment: Photobleaching FP or FP fusions in mammalian cells; details: for t50%, time to bleach for 50% emission intensity / A1, Double Exportential Decay Fit / A2, Double Exportential Decay Fit / A, Single Exponential Decay Fit / k1, Double Exportential Decay Fit / k2, Double Exportential Decay Fit / k, Single Exponential Decay Fit: PC3 cells; for t50%, time to bleach for 50% emission intensity: 25 μM BV or 1 μM BVMe2 for 4 h; for A1, Double Exportential Decay Fit / A2, Double Exportential Decay Fit / A, Single Exponential Decay Fit / k1, Double Exportential Decay Fit / k2, Double Exportential Decay Fit / k, Single Exponential Decay Fit: photobleaching; for mammalian cell photostability t50%: time to bleach 50% from an initial emission rate of 1,000 photons per s
Experimental: PC3 cells were transfected with 2 μg of circular DNA+5 μl Lipofectamine 2000 (Life Technologies) in 2 ml Opti-MEM (Life Technologies) for 4-5 h, transfection media was discarded, prewarmed growth media was added, and protein was produced for 48 h. 25 μM BV or 1 μM BVMe2 was incubated for 4 h. Cells were photobleached with continuous light exposure from a 150 W xenon arc lamp with eGFP EX/EM=495(10)/535(25) nm, tdTomato EX/EM=540(25)/595(50) nm, mCherry EX/EM=580(20)/[…] nm, and smURFP EX/EM=628(40)/680(30) nm focused with a 40×, 1.2 numerical aperture C-Apochromat oil-immersion lens on aZeiss Axiovert 200M inverted microscope. Photobleaching times were normalized to reflect an initial illumination intensity producing 1,000 photons per fluorescent molecule per second as previously described^37. Data was fit to a single exponential decay (F=A [exp^−kt]), where F is fluorescence that varies as a function of time, A is the fit normalized, initial fluorescence (should be 1), k is the rate of fluorescence decay (photobleaching), and t is time in s, or a double exponential decay (F=A1[exp^−k1^t]+A2[exp^−k2^t]), where F is fluorescence that varies as a function of time, A1 and A2 are the fit normalized, initial fluorescence (sum should be 1), k1 and k2 are the rates of fluorescence decay (photobleaching), and t is time in seconds, and data is shown in Table 6.

B1: smURFP: small ultra-red fluorescent protein, SEQ ID NO: 13, homodimer, covalently attaches biliverdin (protein)
chain: MKTSEQRVNIATLLTENKKKIVDKASQDLWRRHPDLIAPGGIAFSQRDRALCLRDYGWFLHLITFCLLAGDKGPIESIGLISIREMYNSLGVPVPAMMESIRCLKEASLSLLDEEDANETAPYFDYIIKAMS
modifications: homodimer; biliverdin chromophore; smRUFP Variant Polypeptide
B1 was tested. Which “fold increase in smURFP fluorescence” value (HEK293A cells [1]; 5 μM BVMe2, 1 h) did it give?
Its value is 85 fold.

What about the “fold increase in smURFP fluorescence” value (HEK293A cells [1]; 5 μM BVMe2, 3 h) of the same molecule?
The value was 85 fold.

What about the “fold increase in smURFP fluorescence” value (HEK293A cells [1]; 5 μM BVMe2, 48 h) of the same molecule?
Its value is 125 fold.

What about the “fold increase in smURFP fluorescence” value (HEK293A cells [1]; 25 μM BV, 3 h) of the same molecule?
Its value is 13 fold.

What about the “fold increase in smURFP fluorescence” value (HEK293A cells [1]; 25 μM BV, 48 h) of the same molecule?
The value was 27 fold.

What about the “protein stability t50%” value (HEK293A cells [1]; BV exposure 3 h) of the same molecule?
Its value is 30 h.

And the “protein stability t50%” value (HEK293A cells [1]; BVMe2 exposure 3 h)?
The value was 33 h.

And the “protein stability t50%” value (HEK293A cells [1]; HEK293A cells, cycloheximide)?
The value was 33 h.

What about the “protein stability t50%” value (HEK293A cells [1]; continuously exposed to BV, cycloheximide) of the same molecule?
Its value is 33 h.

What about the “protein stability t50%” value (HEK293A cells [1]; continuously exposed to BVMe2, cycloheximide) of the same molecule?
The value was 35 h.

And the “protein stability t50%” value (HEK293A cells [1]; without chromophore (apoprotein))?
The value was 17 h.

And the “brightness in cell culture compared with other FPs” value (HEK293A cells [2])?
The value was “comparable brightness to eGFP and is brighter than mCherry, mCardinal, IFP1.4, IFP2.0, and iRFP713”.

What about the “fold increase in fluorescence with HO-1+5-ALA+FeSO4” value (HEK293A cells [2]; HEK293A cells) of the same molecule?
The value was 7.7 fold.

What about the “fold increase in fluorescence with expression of HO-1” value (HEK293A cells [2]; HEK293A cells) of the same molecule?
Its value is 2.8 fold.

What about the “fold increase in fluorescence with 25 μM BV” value (HEK293A cells [2]; HEK293A cells, 3 h) of the same molecule?
The value was 4.7 fold.

And the “fold increase in fluorescence with 25 μM BVMe2 relative to 25 μM BV” value (HEK293A cells [2]; HEK293A cells, 3 h)?
Its value is 18 fold.

And the “fold increase in fluorescence with 25 μM PCB relative to 25 μM BV” value (HEK293A cells [2]; HEK293A cells, 3 h)?
Its value is 10 fold.

What about the “fluorescence relative to eGFP expressed from IRES” value (HEK293A cells [2]; HEK293A cells, in the presence of BVMe2) of the same molecule?
Its value is “five-fold greater fluorescence”.

What about the “t50%, time to bleach for 50% emission intensity” value (PC3 cells) of the same molecule?
The value was 410 s.

And the “A1, Double Exportential Decay Fit” value (PC3 cells)?
The value was 0.23.

What about the “A2, Double Exportential Decay Fit” value (PC3 cells) of the same molecule?
Its value is 0.72.

And the “A, Single Exponential Decay Fit” value (PC3 cells)?
Its value is 0.75.

What about the “k1, Double Exportential Decay Fit” value (PC3 cells) of the same molecule?
Its value is 0.00024 s⁻¹.

And the “k2, Double Exportential Decay Fit” value (PC3 cells)?
The value was 0.0022 s⁻¹.

And the “k, Single Exponential Decay Fit” value (PC3 cells)?
Its value is 0.0008 s⁻¹.

And the “mammalian cell photostability t50%” value (PC3 cells)?
Its value is 570 s.

What about the “average time to bleach 50% emission, t50%” value (PC3 cells; with BV, mammalian cells (n=5)) of the same molecule?
The value was 570 s.

And the “average time to bleach 50% emission, t50%” value (PC3 cells; with BVMe2, mammalian cells (n=5))?
The value was 340 s.

B2: smURFP + BVMe2: smURFP with a single biliverdin dimethyl ester chromophore (protein)
chain: MKTSEQRVNIATLLTENKKKIVDKASQDLWRRHPDLIAPGGIAFSQRDRALCLRDYGWFLHLITFCLLAGDKGPIESIGLISIREMYNSLGVPVPAMMESIRCLKEASLSLLDEEDANETAPYFDYIIKAMS
modifications: left off: small tags and cut ends
notes: smURFP with a single biliverdin dimethyl ester chromophore
With B2 as the molecule, how does the “protein stability t50%” value (HEK293A cells [1]; HEK293A cells, cycloheximide) read?
The value was 35 h.

And the “fold brighter than IFP2.0 or iRFP713” value (HEK293A cells [2]; HEK293A cells)?
The value was 7 fold.

What about the “fold increase in fluorescence relative to smURFP” value (HEK293A cells [2]; HEK293A cells, chromophore incubation 3 h) of the same molecule?
Its value is greater than 32 fold.

What about the “t50%, time to bleach for 50% emission intensity” value (PC3 cells) of the same molecule?
Its value is 190 s.

And the “A1, Double Exportential Decay Fit” value (PC3 cells)?
The value was 0.42.

And the “A2, Double Exportential Decay Fit” value (PC3 cells)?
The value was 0.57.

What about the “A, Single Exponential Decay Fit” value (PC3 cells) of the same molecule?
Its value is 0.73.

And the “k1, Double Exportential Decay Fit” value (PC3 cells)?
Its value is 0.020 s⁻¹.

And the “k2, Double Exportential Decay Fit” value (PC3 cells)?
Its value is 0.0012 s⁻¹.

And the “k, Single Exponential Decay Fit” value (PC3 cells)?
Its value is 0.0015 s⁻¹.

And the “mammalian cell photostability t50%” value (PC3 cells)?
Its value is 340 s.
